Laboratory results taken from article PMC2133036 (The Journal of Cell Biology, 1998).
Where “and” joins values, the source holds several entries; their conditions need not be identical. Identical values can stand only once.

Molecular target: T1, Vma22p (S. cerevisiae, UniProt P38784 1-181)
T1 sequence (looked up): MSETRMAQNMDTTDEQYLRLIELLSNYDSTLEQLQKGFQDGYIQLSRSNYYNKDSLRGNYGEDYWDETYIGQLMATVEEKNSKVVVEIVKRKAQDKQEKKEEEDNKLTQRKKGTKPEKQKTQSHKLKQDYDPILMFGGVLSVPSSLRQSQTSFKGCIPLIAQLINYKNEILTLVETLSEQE
Assay: cross-linking

half-life of the interaction in cells (pulse-chase, cross-linkable Vph1p): < 5 min and ~5 min
B1: Vph1p, the 100-kD integral membrane subunit of the V-ATPase (natural protein, S. cerevisiae, UniProt P32563 1-840, looked up)
chain: MAEKEEAIFRSAEMALVQFYIPQEISRDSAYTLGQLGLVQFRDLNSKVRAFQRTFVNEIRRLDNVERQYRYFYSLLKKHDIKLYEGDTDKYLDGSGELYVPPSGSVIDDYVRNASYLEERLIQMEDATDQIEVQKNDLEQYRFILQSGDEFFLKGDNTDSTSYMDEDMIDANGENIAAAIGASVNYVTGVIARDKVATLEQILWRVLRGNLFFKTVEIEQPVYDVKTREYKHKNAFIVFSHGDLIIKRIRKIAESLDANLYDVDSSNEGRSQQLAKVNKNLSDLYTVLKTTSTTLESELYAIAKELDSWFQDVTREKAIFEILNKSNYDTNRKILIAEGWIPRDELATLQARLGEMIARLGIDVPSIIQVLDTNHTPPTFHRTNKFTAGFQSICDCYGIAQYREINAGLPTIVTFPFMFAIMFGDMGHGFLMTLAALSLVLNEKKINKMKRGEIFDMAFTGRYIILLMGVFSMYTGFLYNDIFSKTMTIFKSGWKWPDHWKKGESITATSVGTYPIGLDWAWHGTENALLFSNSYKMKLSILMGFIHMTYSYFFSLANHLYFNSMIDIIGNFIPGLLFMQGIFGYLSVCIVYKWAVDWVKDGKPAPGLLNMLINMFLSPGTIDDELYPHQAKVQVFLLLMALVCIPWLLLVKPLHFKFTHKKKSHEPLPSTEADASSEDLEAQQLISAMDADDAEEEEVGSGSHGEDFGDIMIHQVIHTIEFCLNCVSHTASYLRLWALSLAHAQLSSVLWTMTIQIAFGFRGFVGVFMTVALFAMWFALTCAVLVLMEGTSAMLHSLRLHWVESMSKFFVGEGLPYEPFAFEYKDMEVAVASASSSASS
